The target in test [1] is T1, human cytosolic TK1 in CEM TK1+ cell extract (human, UniProt P04183 2-234).
T1 construct: Cell extract with 25 ug (also printed as 25 pg) of protein; also called wild-type of CEM cell extract; cytosolic TK1 from human (CEM+)
T1 sequence: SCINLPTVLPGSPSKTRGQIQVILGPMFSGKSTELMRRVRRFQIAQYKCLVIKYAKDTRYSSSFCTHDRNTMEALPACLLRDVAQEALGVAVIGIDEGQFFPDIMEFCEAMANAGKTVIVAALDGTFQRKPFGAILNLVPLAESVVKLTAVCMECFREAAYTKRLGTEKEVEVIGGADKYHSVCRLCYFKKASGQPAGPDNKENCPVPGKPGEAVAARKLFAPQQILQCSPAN
Briefly: Western blot after SDS-PAGE of denatured cell extract. The procedure:
(§1) FIGS. 3A-3D show dot blot and Western blot analysis. Recombinant TK1 protein from canine (rCTK1), feline (rFTK1), equine (rETK1) and human (rHTK1) at concentration ranging from 20-0.6 ng was blotted. The membranes were developed with (FIG. 3A) monoclonal antibody produced against active site mAb1 ([…], diluted in TBS containing 3% of non-fat dry milk) and (FIG. 3B) monoclonal antibody produced against C terminal region mAb2 ([…], diluted in TBS containing 3% of non-fat dry milk). Recombinant dog TK1, human TK1 at concentration (10, 5 and 2.5 ng) and human TK1 positive cell extract containing 25 μg of protein (CEM TK1+) and TK1 negative cell extract containing 25 µg of protein (CEM TK1−) were electrophoresed using SDS-PAGE, followed by Western blots with […] of mAb1 diluted in TBS containing 3% of non-fat dry milk (FIG. 3C). Western blot results with […] of mAb2 diluted in TBS containing 3% of non-fat dry milk mAb 2 (FIG. 3D).
(§2) Western blot assay: recombinant canine TK1, human recombinant TK1 ([…]) and cytosolic TK1 from human (CEM+/−) containing 25 µg of proteins were diluted in a denaturing sample buffer, boiled, and loaded onto a 12% polyacrylamide gel. The gel was electrophoresed in SDS running buffer. […]
On the technique in general: In western blotting, separated proteins are transferred to a membrane and probed.

For test [2], the target named is T2, recombinant feline TK1 (cat, UniProt P04183 2-234 (human entry)).
T2 construct: also called rFTK1; cat TK1
T2 chain: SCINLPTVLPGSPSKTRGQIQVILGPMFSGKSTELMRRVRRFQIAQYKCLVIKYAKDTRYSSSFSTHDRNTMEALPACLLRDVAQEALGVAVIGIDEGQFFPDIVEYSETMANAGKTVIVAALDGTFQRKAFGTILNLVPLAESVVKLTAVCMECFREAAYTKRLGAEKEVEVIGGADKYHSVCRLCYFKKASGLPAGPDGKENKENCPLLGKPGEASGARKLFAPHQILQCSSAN
Briefly: ECL dot blot with recombinant TK1, 20 to 0.6 ng. As for the experimental part:
as §1
(§3) ECL dot blot assay was carried out as described previously (He et al., 2000). In brief, 3 μl of recombinant enzyme at varying concentrations ranged from 20 to 0.6 ng was applied on nitrocellulose membrane (Thermo scientific, Germany). The membrane was blocked in non-fat dry milk 10% (Bio-Rad) for 1 h and then incubated with the hybridoma supernatants or antisera and incubated for overnight at 4° C. Then after the membrane was washed and incubated with a biotinylated second antibody conjugated with horseradish peroxidase directed against mouse (GE healthcare, UK) for 1 h at room temperature. Followed by adding ECL reagent. Finally, the signal was detected by ChemiDoc Imaging System BIO-RAD.

Test [3] has as its target T3, recombinant equine TK1 (horse, UniProt P04183 2-234 (human entry)).
T3 construct: also called rETK1; horse TK1
T3 chain: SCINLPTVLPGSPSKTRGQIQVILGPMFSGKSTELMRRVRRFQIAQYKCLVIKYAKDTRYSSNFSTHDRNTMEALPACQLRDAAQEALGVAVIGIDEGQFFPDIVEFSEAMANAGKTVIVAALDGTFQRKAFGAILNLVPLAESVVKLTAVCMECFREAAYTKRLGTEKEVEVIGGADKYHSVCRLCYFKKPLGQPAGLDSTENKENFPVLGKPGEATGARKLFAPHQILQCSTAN
Briefly: ECL dot blot with recombinant TK1, 20 to 0.6 ng. The procedure:
as §1, §3

Test [4] has as its target T4, recombinant human TK1 (human, UniProt P04183 1-234, limits assumed).
T4 construct: also called rHTK1; human recombinant TK1
T4 sequence: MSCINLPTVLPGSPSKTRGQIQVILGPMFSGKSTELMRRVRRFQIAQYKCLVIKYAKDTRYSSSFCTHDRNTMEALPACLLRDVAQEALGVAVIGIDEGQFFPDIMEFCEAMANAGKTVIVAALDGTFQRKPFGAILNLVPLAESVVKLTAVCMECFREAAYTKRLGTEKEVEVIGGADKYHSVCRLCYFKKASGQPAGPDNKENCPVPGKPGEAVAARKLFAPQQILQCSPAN
In words: ECL dot blot with recombinant TK1, 20 to 0.6 ng. As for the experimental part:
as §1, §3

The target of the next test is T5, recombinant canine TK1 (dog).
T5 construct: also called rCTK1; recombinant dog TK1
T5 chain: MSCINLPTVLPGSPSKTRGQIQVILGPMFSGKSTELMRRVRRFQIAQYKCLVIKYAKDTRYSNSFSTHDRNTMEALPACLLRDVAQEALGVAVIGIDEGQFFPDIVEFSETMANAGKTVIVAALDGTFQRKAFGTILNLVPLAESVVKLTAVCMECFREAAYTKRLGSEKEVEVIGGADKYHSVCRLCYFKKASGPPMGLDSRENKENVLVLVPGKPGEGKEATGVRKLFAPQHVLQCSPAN
In words: Quartz Crystal Microbalance, antibody immobilized, recombinant canine TK1 injected. As for the experimental part: The kinetics of the interaction between the two monoclonal antibodies, mAb1 and mAb2 (150 kDa), and canine recombinant TK1 was measured by a Quartz Crystal Microbalance (QCM) technology. To characterize binding interactions, the monoclonal antibody was immobilized on the sensor surface and the sample containing recombinant canine TK1 was injected over the sensor surface. […] The signal output is given in frequency (Hz) and is directly related to changes in mass on the sensor surface.

The target in test [5] is T2, recombinant feline TK1. In words: ECL dot blot with recombinant TK1. As for the experimental part:
as §1, §3

Test [6] deals with T3, recombinant equine TK1. Briefly: ECL dot blot with recombinant TK1. The procedure:
as §1, §3

The target in test [7] is T4, recombinant human TK1. Briefly: ECL dot blot with recombinant TK1. The procedure: as §1, §3
In test [8] the target is T1, human cytosolic TK1 in CEM TK1+ cell …. Briefly: Western blot after SDS-PAGE, mAb2 at 2 pg/ml as printed. As for the experimental part:
as §1, §2

B1: CTK1-1 (mAb1) (antibody, mouse IgG1, kappa, V domains shown)
VH: EVKLVESGGGLVQPGDSLRLSCATSGFTFNDHYMNWVRQPPGKALEWVAFIGNKAYGYKIEYNSSVKGRFTISRDDSQSFLYLQLNTLRSEDSATYYCARDGAFIYWGQGTVVTVSA
VL: DVVMTQTPLSLPVSLGDQASISCRSSQSLVHSNGNTYLHWYLQKPGQSPKLLIYKVSNRFSGVPDRFSGSGSGSDFTLKISRVEAEDLGVYFCSQSTHIPYTFGGGTELEIRR
notes: Mouse monoclonal IgG1-kappa from hybridoma sub-clone 9C8, raised against the active site peptide (amino acids 161-183) of human TK1; also called 9C8
Turning to B1, the binding result (in test [1]; in the test with recombinant feline TK1 [2]; with recombinant equine TK1 [3]; with recombinant human TK1 [4]) was “binds” in each case. In addition, the Kd (in general, the free concentration of one partner at which half of the binding sites on the other are occupied at equilibrium, for simple one-to-one binding) with recombinant canine TK1 lay within 0.3 to 0.75 nM. The koff (usually a measure of how fast the partners let go of each other) with recombinant canine TK1 was 6.1e-05 to 0.00023 s⁻¹. For the same molecule, in the test with recombinant canine TK1, the kon (usually a measure of how fast the partners come together) lay within 240000 to 300000 M⁻¹ s⁻¹.

B2: CTK1-2 (mAb2) (antibody, mouse IgG2b, kappa, V domains shown)
VH: EVQLQQSGAELVKPGASVKLSCTASGFNIKDTYMHWVKQRPEQGLEWIGRIDPANGNTKYDPKFQGKATITPDTSSTTAYLQLSSLTSEDTAVYYCARNRAYYGNYYAMDYWGQGTSVTVSS
VL: DIVMTQSPSSLTVTAGEKVTMSCKSSQSLLNSRNQKNYLTWYQQKPGQPPKLLIYWASTRESGVPDRFTGSGFGTDFTLAISSVQAEDLAVYYCQNDYSYPFTFGSGTKLEIKR
notes: Mouse monoclonal IgG2b-kappa from hybridoma sub-clone 3H11, raised against the C-terminal peptide (amino acids 211-225) of dog TK1; also called 3H11
For B2, the binding result in the test with recombinant feline TK1 [5] was “no binding (tested: 20 to 0.6 ng)”; in the test with recombinant equine TK1 [6], “no binding (tested: 20 to 0.6 ng)”; with recombinant human TK1 [7] it was “no binding (tested: 20 to 0.6 ng)”; in test [8] it was “no binding”. Besides, the Kd in the test with recombinant canine TK1 fell in the range of 0.2 to 0.4 nM. The koff with recombinant canine TK1 was 0.00011 to 0.00019 s⁻¹. Moreover, in the test with recombinant canine TK1, the kon was 500000 to 540000 M⁻¹ s⁻¹.

Source of the values: patent publication US20240044903A1 (KOZA NOVEL MATERIALS KOREA, published 2024).
